Source: the supplement of paper PMC11136658

System: peptide library, one residue held at a place counted from the Y acceptor
Assay: relative phosphorylation of the sub-library (ratio to the mean residue at this position); higher = residue favoured
In short: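 Within 384-well plates, purified recombinant kinases phosphorylated biotinylated Tyr-centred peptide library mixtures over 90 min using 50 μM ATP spiked with γ-32P-ATP; each mixture fixed one residue at one position from −5 to +5. Streptavidin membrane capture, rinsing, phosphorimaging and ImageQuant gave the intensities. These were normalized per position to the sum of the 18 randomized residues (16 for the Ser/Thr-free library) and multiplied by that number.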

Chain of MKK4, construct: aa34-end, human (P45985 34-399, looked up): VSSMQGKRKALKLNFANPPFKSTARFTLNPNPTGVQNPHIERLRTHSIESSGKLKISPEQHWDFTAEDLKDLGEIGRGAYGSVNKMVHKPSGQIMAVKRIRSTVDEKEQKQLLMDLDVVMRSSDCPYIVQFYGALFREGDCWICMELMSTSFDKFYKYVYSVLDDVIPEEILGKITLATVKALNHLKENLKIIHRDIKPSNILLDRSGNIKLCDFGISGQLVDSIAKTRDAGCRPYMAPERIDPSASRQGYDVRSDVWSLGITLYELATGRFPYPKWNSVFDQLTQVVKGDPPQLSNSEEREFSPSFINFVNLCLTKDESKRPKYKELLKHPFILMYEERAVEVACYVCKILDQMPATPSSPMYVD
Chain of MERTK, construct: aa578-872, human (Q12866 578-872, looked up): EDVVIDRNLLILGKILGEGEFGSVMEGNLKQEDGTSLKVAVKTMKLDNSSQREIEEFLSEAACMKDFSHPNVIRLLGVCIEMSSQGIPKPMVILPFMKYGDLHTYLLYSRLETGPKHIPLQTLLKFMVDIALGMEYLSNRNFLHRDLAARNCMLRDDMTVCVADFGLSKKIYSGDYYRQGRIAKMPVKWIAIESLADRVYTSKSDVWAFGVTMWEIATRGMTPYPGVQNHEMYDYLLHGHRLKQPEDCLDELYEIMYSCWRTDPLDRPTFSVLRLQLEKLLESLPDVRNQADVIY
Chain of NEK10, construct: aa266-895, human (Q6ZWH5 266-895, looked up): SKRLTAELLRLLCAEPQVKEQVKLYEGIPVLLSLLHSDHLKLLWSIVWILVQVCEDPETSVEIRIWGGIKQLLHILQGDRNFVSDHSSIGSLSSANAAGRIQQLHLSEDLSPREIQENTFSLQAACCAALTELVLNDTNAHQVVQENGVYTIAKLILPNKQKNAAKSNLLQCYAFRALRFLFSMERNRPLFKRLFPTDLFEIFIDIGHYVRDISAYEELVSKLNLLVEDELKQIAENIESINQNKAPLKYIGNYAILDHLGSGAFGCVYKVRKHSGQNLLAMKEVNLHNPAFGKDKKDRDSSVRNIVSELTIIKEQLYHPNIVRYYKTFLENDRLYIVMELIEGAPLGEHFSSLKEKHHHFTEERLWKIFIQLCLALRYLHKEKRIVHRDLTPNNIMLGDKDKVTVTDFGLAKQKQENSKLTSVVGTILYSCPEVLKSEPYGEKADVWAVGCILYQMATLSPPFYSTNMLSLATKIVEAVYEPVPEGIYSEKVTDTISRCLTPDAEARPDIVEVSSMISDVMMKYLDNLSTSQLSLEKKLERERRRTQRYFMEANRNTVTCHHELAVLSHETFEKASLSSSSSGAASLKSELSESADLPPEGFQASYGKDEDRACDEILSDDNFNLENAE

MERTK, construct: aa578-872, human (from UniProt Q12866)
relative phosphorylation
Conditions	at +1	at +2	at +3	at +4	at +5	at -1	at -2	at -3	at -4	at -5
A fixed	2.07	0.87	0.578	0.92	1.15	0.711	1.06	1.01	1.28	1.1
D fixed	0.89	0.601	0.483	0.962	0.839	0.591	0.967	1.27	1.12	0.979
E fixed	1.69	1.01	0.426	1.27	0.786	0.468	1.28	1.55	1.44	0.974
F fixed	1.01	1.64	1.93	1.14	0.565	1.75	0.655	0.836	0.595	1.03
G fixed	0.859	0.321	0.63	1.37	1.61	0.299	1.63	1.28	1.46	1.31
H fixed	0.791	0.687	0.848	1.12	1.01	1.4	0.989	0.875	0.891	0.994
I fixed	0.708	1.34	1.58	0.549	0.621	2.37	0.533	0.482	0.84	0.889
K fixed	0.25	0.594	0.254	0.822	0.996	0.436	0.948	0.746	0.911	1.05
L fixed	0.831	1.4	2.13	0.799	0.745	2.69	0.777	0.863	1.02	0.993
M fixed	1.4	1.2	1.64	1.09	0.917	1.14	0.68	0.967	0.968	1
N fixed	0.447	0.768	0.465	0.76	0.879	0.842	1.26	1.21	0.926	1.13
P fixed	0.172	0.684	1.17	1.2	2.65	0.481	1.18	1.32	1.25	1.24
Q fixed	1.04	0.695	0.72	0.962	0.81	0.63	1.19	0.953	1.16	1.09
R fixed	0.353	0.679	0.392	1.07	0.991	0.439	1.09	0.775	1.2	1.13
S fixed	1.33	0.725	0.562	0.926	1.08	0.517	1.34	1.16	0.807	0.783
T fixed	1.3	0.973	0.838	1	0.97	0.939	1.1	1.17	0.667	0.874
V fixed	1.53	1.33	1.55	0.904	0.756	1.38	0.842	0.803	0.866	0.862
W fixed	1.34	2.47	1.8	1.14	0.608	0.916	0.484	0.743	0.594	0.564
pThr fixed	1.89	1.18	0.3	0.633	0.568	0.718	0.915	1.1	0.901	0.902
pTyr fixed	1.96	2.62	0.613	0.678	0.61	2.26	1.19	1.46	1.13	0.957

MKK4, construct: aa34-end, human (from UniProt P45985)
relative phosphorylation
Conditions	at +1	at +2	at +3	at +4	at +5	at -1	at -2	at -3	at -4	at -5
A fixed	1.14	0.979	0.996	1.06	0.902	0.986	1.01	0.916	1.11	1.06
D fixed	1.32	1.29	1.03	1.2	1.02	1.49	1.18	0.991	1.09	0.992
E fixed	1.26	1.05	1.16	1.05	1.18	1.2	1.17	0.898	1.09	1.06
F fixed	0.867	1.1	1.08	1.12	1.13	0.844	1.06	1.05	1.06	1.17
G fixed	1.49	1.25	1.12	1.15	1.18	1.58	1.02	0.961	1.2	1.18
H fixed	0.87	0.959	0.981	1.22	1.04	0.866	0.994	1.01	1	1.11
I fixed	0.748	0.79	0.796	0.795	0.79	0.898	0.72	0.833	0.785	0.884
K fixed	0.786	0.846	0.923	0.837	0.909	0.638	1.09	1.07	0.878	0.915
L fixed	0.892	0.859	0.806	0.855	0.941	1.03	0.974	0.991	0.905	0.905
M fixed	1.05	0.907	0.949	0.904	0.88	1.11	0.922	0.934	0.918	0.873
N fixed	0.957	1.03	0.898	0.844	0.9	0.905	0.983	0.939	0.86	0.984
P fixed	1.11	1.32	1.34	1.37	1.22	1.04	1.05	0.928	1.08	1.09
Q fixed	0.87	0.893	0.854	0.753	0.858	0.885	0.856	1.04	0.977	0.902
R fixed	0.865	0.941	0.977	0.907	1.05	0.771	0.958	1.41	1.02	0.97
V fixed	0.775	0.779	0.826	0.761	0.775	0.694	0.792	0.736	0.771	0.713
W fixed	0.999	1.02	1.27	1.18	1.21	1.06	1.21	1.28	1.24	1.2
pThr fixed	1.17	1.23	1.15	1.21	1.07	1.05	0.96	1.2	1.29	1.18
pTyr fixed	1.25	0.974	1.18	0.991	1.22	2.13	1.28	1.25	1.18	1.18

MKK6, construct: Full length, human (from UniProt P52564)
relative phosphorylation
Conditions	at +1	at +2	at +3	at +4	at +5	at -1	at -2	at -3	at -4	at -5
A fixed	0.98	0.864	0.898	0.991	0.809	1.01	0.924	1.01	1.08	1.07
D fixed	1.16	1.47	1.16	1.39	1.26	1.56	1.38	1.17	1.2	1.25
E fixed	1.18	1.32	1.29	1.24	1.3	1.41	1.31	1.03	1.18	1.22
F fixed	0.736	1.04	1.08	1.11	1.06	0.746	0.926	1.05	0.926	1.03
G fixed	1.45	0.959	0.966	1.04	1.06	1.31	0.972	0.972	1.21	1.04
H fixed	0.977	1.01	0.93	1.02	0.997	1.08	1.08	1.01	1.04	1.1
I fixed	0.66	0.709	0.711	0.742	0.819	0.643	0.668	0.746	0.718	0.798
K fixed	0.807	0.912	0.926	0.872	0.845	0.724	0.915	1.02	0.841	0.922
L fixed	0.816	0.825	0.76	0.83	0.896	0.814	0.819	0.859	0.904	0.791
M fixed	0.975	0.862	0.925	0.897	0.928	0.891	0.891	0.855	0.886	0.796
N fixed	1.11	0.973	1	0.958	1.03	1.09	1.19	1.12	0.966	1.16
P fixed	1.18	1.03	1.12	1.2	1.05	1.03	0.989	0.851	1.09	1.03
Q fixed	1.02	0.887	0.978	0.934	1.08	1.11	1.01	1.25	1.07	1.01
R fixed	1.05	0.781	0.921	0.867	0.93	0.76	0.866	1.19	0.955	0.928
V fixed	0.738	0.797	0.832	0.736	0.792	0.569	0.691	0.746	0.817	0.778
W fixed	1.15	1.55	1.52	1.17	1.14	1.25	1.36	1.12	1.12	1.08
pThr fixed	1.51	1.74	1.23	1.52	1.24	1.39	1.11	1.57	1.29	1.34
pTyr fixed	1.13	1.18	1.3	1.36	1.41	1.85	1.21	1.33	1.1	1.26

NEK10, construct: aa266-895, human (from UniProt Q6ZWH5)
relative phosphorylation
Conditions	at +1	at +2	at +3	at +4	at +5	at -1	at -2	at -3	at -4	at -5
A fixed	0.35	0.54	0.755	0.959	0.812	0.916	0.855	1.05	1.13	1.08
D fixed	0.229	0.823	0.78	0.87	0.766	0.564	0.825	0.727	0.992	0.965
E fixed	0.173	0.582	0.836	0.71	0.776	0.798	0.772	0.745	0.897	0.981
F fixed	2.39	0.883	1.07	1.05	1.09	1.19	1.25	0.991	0.956	0.969
G fixed	0.353	1.31	1.12	1.1	1.08	1.01	1.12	0.981	1.16	1.17
H fixed	3.09	1.41	1.18	1.06	1.05	1.28	1.12	1.16	1.14	1.15
I fixed	0.888	0.45	0.571	0.794	0.692	0.801	0.637	0.801	0.805	0.869
K fixed	0.373	1.05	1.13	1.21	1.41	0.876	1.13	1.21	1.27	1.2
L fixed	1.8	0.577	0.754	0.944	0.887	1.21	1.06	1.09	0.852	0.826
M fixed	0.954	0.783	1.12	1	0.918	1.13	0.989	0.982	1.01	0.867
N fixed	0.565	1.55	1.24	1.02	1.07	0.796	1.4	1.02	0.84	0.987
P fixed	0.387	1.63	1.29	1.13	1.05	0.715	1.02	0.946	1.14	1.07
Q fixed	0.461	1.65	1.28	0.915	1.06	0.916	0.998	1.07	0.974	0.931
R fixed	0.451	1.25	1.34	1.29	1.49	1.05	1.19	1.55	1.19	1.31
V fixed	0.455	0.473	0.584	0.771	0.703	0.708	0.607	0.695	0.673	0.735
W fixed	3.08	1.04	0.934	1.17	1.15	2.04	1.03	0.981	0.971	0.901
pThr fixed	0.242	0.585	0.599	0.764	0.714	0.515	0.453	0.608	0.64	0.774
pTyr fixed	0.248	0.44	0.693	0.723	0.72	1.03	0.783	0.764	0.734	0.812
